Laboratory results reported in patent CN117643628A (SHANGHAI JUNSHI BIOSCIENCES CO LTD; JUNMENG BIOSCIENCES CO …, dated 2024).

Target: SARS-COV-2野生型毒株Spike蛋白的RBD (SARS-COV-2野生型毒株, UniProt P0DTC2 319-541)
Assay: BLI (Octet), antibody captured on Protein A probes, RBD at 15 nM and 60 nM in solution

B1: HUR33变体 (antibody, human IgG1, kappa, V domains shown)
VH: QVQLVQSGSELKKPGASVKVSCKASGYTFTDYGMNWVRQAPGQGLEWMGWINTYSGEPTYADDFRGRFVFSLDTSVSTAYLQISSLKAEDTAVYYCARGGNWDWYFDVWGQGTLVTVSS
VL: DIQMTQSPSSLSASVGDRVTITCRASQSVSNFLHWYQQKPGKAPKLLIYYASQSISGVPSRFSGSGSGTDFTLTISSLQPEDFATYYCQQSNTWPLTFGQGTKLEIKR
notes: also called HUR33-1; HUR33 variant
**Q.** Does B1 bind?
**A.** Result: binds
